Experimental findings from patent US20250263502A1 are described below.

Experiment [1] addresses Human serum albumin (human) (UniProt P02768). As to the kind of experiment: ELISA, expression medium of VNAR-hFc on coated protein (negative control).
For experiment [2], the target named is ectodomain of human CD98hc (human) (UniProt P08195). As to the kind of experiment: ELISA, expression medium of VNAR-hFc on coated protein.
Experiment [3] has as its target ectodomain of murine CD98hc (mouse) (UniProt P10852). Described as above.
Experiment [4] shares this target. The experiment in a line: ELISA, purified VNAR-Fc titrated on coated CD98hc. A general note: ELISA stands for enzyme-linked immunosorbent assay.

Sequence of ectodomain of human CD98hc (human) (P08195 206-630): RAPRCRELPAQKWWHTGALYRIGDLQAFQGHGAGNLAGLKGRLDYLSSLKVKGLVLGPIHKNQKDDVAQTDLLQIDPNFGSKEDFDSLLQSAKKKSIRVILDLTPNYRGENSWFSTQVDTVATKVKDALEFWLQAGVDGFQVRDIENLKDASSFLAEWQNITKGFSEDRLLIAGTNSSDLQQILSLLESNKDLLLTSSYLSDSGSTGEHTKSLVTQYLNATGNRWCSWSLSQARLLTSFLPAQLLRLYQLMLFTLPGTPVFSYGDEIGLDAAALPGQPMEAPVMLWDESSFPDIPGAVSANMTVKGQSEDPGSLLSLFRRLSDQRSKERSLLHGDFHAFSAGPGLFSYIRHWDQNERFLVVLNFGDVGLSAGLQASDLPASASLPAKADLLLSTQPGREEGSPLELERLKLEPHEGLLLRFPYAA
Sequence of Human serum albumin (human) (P02768 25-609 limits assumed): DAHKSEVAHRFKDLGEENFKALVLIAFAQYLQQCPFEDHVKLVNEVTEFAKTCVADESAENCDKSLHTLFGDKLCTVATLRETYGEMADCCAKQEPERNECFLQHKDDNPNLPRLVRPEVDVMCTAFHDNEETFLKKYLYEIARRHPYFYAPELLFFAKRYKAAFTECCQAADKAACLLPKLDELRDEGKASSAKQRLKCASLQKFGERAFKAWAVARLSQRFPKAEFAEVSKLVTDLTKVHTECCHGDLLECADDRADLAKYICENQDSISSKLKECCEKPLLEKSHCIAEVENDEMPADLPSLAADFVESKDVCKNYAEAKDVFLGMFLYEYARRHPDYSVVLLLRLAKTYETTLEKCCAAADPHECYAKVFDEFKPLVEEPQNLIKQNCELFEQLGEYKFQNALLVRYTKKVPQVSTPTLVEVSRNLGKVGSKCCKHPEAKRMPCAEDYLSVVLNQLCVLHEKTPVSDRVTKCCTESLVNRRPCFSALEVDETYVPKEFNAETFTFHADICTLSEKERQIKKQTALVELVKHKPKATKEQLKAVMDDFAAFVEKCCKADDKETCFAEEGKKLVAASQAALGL
Sequence of ectodomain of murine CD98hc (mouse) (P10852 100-526): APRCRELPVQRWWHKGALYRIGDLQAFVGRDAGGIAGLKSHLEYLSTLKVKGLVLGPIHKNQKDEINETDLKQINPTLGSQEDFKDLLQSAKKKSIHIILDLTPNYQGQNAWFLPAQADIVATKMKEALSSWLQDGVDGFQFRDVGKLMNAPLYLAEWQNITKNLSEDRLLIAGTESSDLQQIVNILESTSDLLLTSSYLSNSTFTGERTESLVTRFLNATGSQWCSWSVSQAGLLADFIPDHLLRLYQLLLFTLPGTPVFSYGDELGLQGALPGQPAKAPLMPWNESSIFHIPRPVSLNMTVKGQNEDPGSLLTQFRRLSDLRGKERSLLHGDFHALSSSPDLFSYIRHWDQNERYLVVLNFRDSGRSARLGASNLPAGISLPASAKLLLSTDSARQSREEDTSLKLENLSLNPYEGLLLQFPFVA

B1: VNAR clone G10 fused N-terminally to human IgG1 Fc (VNAR-hFc) (Fc fusion, not shown: a dimerising Fc or GST)
chain: ARVDQTPQTITKETGESLTINCVLRDSNCALSSTYWYRKKSGSTNEENISKGGRYVETVNSGSKSFSLKINDLTVEDSGTYRCKVVFKLFSGRACAGEKDVYGGGTVVTVNA
For the molecule B1, the Binding [relative units] (relative units) is 0.051 in experiment [1], 0.043 in experiment [2] and 0.041 in experiment [3].

B2: VNAR clone F11 fused N-terminally to human IgG1 Fc (VNAR-hFc) (Fc fusion, not shown: a dimerising Fc or GST)
chain: ARVDQTPQTITKEEGESLTINCVLRGEFYALASTSWYRKKSGSTREETISKGGRYVETVNSGSKSFSLRINDLTVEDSGTYRCNVYGYRIFSPEVKGPNDVYGDGTAVTVNA
As for B2, the Binding [relative units] (relative units) in experiment [1] was 0.072; in experiment [2], 3.03; in experiment [3], 0.096.

B3: VNAR clone F1 fused N-terminally to human IgG1 Fc (VNAR-hFc) (Fc fusion, not shown: a dimerising Fc or GST)
chain: ARVDQTPQTITKEEGESLTINCVLRVHGRALASTSWYRKKSGSTREETISKGGRYVETVNSGSKSFSLRINDLTVEDSGTYRCNVYGLSSGDIEGVKKIDVYGDGTAVTVNA
The EC50 is the concentration needed to bring the measured effect to its halfway point. A higher EC50 goes with weaker potency. On to B3, for which the Binding [relative units] (relative units) in experiment [1] worked out at 0.073; in experiment [3], 0.115. In experiment [4], this molecule yielded an EC50 of 3860 nM.

B4: VNAR clone F12 fused N-terminally to human IgG1 Fc (VNAR-hFc) (Fc fusion, not shown: a dimerising Fc or GST)
chain: ARVDQTPQTITKEEGESLTINCVLRVHGRALASTSWYRKKSGSTREETISKGGRYVETVNSGSKSFSLRINDLTVEDSGTYRCNVYGLSFGDIEGVKKIDVYGDGTAVTVNA
Take B4: the figures for the Binding [relative units] (relative units) in experiment [1] and in experiment [3] were 0.112 and 0.563, respectively. Also, the EC50 in experiment [4] turned out to be 72 nM.

B5: VNAR clone H12 fused N-terminally to human IgG1 Fc (VNAR-hFc) (Fc fusion, not shown: a dimerising Fc or GST)
chain: ARVDQTPQTITKEEGESLTINCVLRVHGCALASTSWYRKKSGSTREETISKGGRYVETVNSGSKSFSLRINDLTVEDSGTYRCNVYGLSFVDIEGVKKIDVYGDGTAVTVNA
Take B5: the Binding [relative units] (relative units) in experiment [1] turned out to be 0.055; in experiment [2], 0.046; in experiment [3] it was 0.045.

B6: VNAR clone E12 fused N-terminally to human IgG1 Fc (VNAR-hFc) (Fc fusion, not shown: a dimerising Fc or GST)
chain: ARVDQTPQTITKEEGESLTINCVLRTQDPALASTSWYRKKSGSTREETISKGGRYVETVNSGSKSFSLRINDLTVEDSGTYRCNVYFLLAPTKTKLQGIDVYGDGTAVTVNA
Regarding B6, the Binding [relative units] (relative units) in experiment [1] stood at 0.056; in experiment [3] it was 0.078. Further, in experiment [4], the EC50 was 819 nM.

B7: VNAR clone B12 fused N-terminally to human IgG1 Fc (VNAR-hFc) (Fc fusion, not shown: a dimerising Fc or GST)
chain: ARVDQTPRSVTKETGESLTINCVLRDASYALGSTCWYRKKSGSTNEESISKGGRYVETVNSGSKSFSLRINDLTVEDGGTYRCGVARGWRTLNYLCDVRTGEWSCVWRAAACGDGTAVTVNA
As to B7, the Binding [relative units] (relative units) in experiment [1] amounted to 0.081; in experiment [2] it was 0.076; in experiment [3], 0.084.

B8: VNAR clone D1 fused N-terminally to human IgG1 Fc (VNAR-hFc) (Fc fusion, not shown: a dimerising Fc or GST)
chain: ARVDQTPQTITKEEGESLTINCVLRHNYSALASTSWYRKKSGSTREETISKGGRYVETVNSGSKSFSLRINDLTVEDSGTYRCNVYGISFIEEKIRYDFDVYGDGTAVTVNA
For B8, the values for the Binding [relative units] (relative units) in experiment [1] and in experiment [3] were 0.074 and 0.417, respectively. Besides, the EC50 in experiment [4] turned out to be 190 nM.

B9: VNAR clone G6 fused N-terminally to human IgG1 Fc (VNAR-hFc) (Fc fusion, not shown: a dimerising Fc or GST)
chain: ARVDQTPQTITKEEGESLTINCVLRVETRALASTSWYRKKSGSTREETISKGGRYVETVNSGSKSFSLRINDLTVEDSGTYRCNVYIRHYSEFTQAPFRDVYGDGTAVTVNA
Regarding B9, the Binding [relative units] (relative units) stood at 0.052 in experiment [1], 0.042 in experiment [2] and 0.041 in experiment [3].

B10: VNAR clone A8 fused N-terminally to human IgG1 Fc (VNAR-hFc) (Fc fusion, not shown: a dimerising Fc or GST)
chain: ARVDQTPQTITKEEGESLTINCVLRRNFQLASTSWYRKKSGSTREETISKGGRYVETVNSGSKSFSLRINDLTVEDSGTYRCNVYGFVEFAKNIVEFIDVYGDGTAVTVNA
With B10, the figures for the Binding [relative units] (relative units) in experiment [1], in experiment [2] and in experiment [3] were 0.065, 2.97 and 0.135, respectively.

B11: VNAR clone G3 fused N-terminally to human IgG1 Fc (VNAR-hFc) (Fc fusion, not shown: a dimerising Fc or GST)
chain: ARVDQTPQTITKETGESLTINCVLRDNNCALSTTYWYRKKSGSTNEENISKGGRYVETVNSGSKSFSLRINDLTVEDSGTYRCKVHFFPSFCNSTSIRSVDVYGGGTVVTVNA
Regarding B11, the Binding [relative units] (relative units) in experiment [1] turned out to be 0.053; in experiment [3] it was 0.041.

B12: VNAR clone H7 fused N-terminally to human IgG1 Fc (VNAR-hFc) (Fc fusion, not shown: a dimerising Fc or GST)
chain: ARVDQTPQTITKEEGESLTINCVLRYNNPALASTSWYRKKSGSTREETISKGGRYVETVNSGSKSFSLRINDLTVEDSGTYRCNVYFFPSFLVDKLQSHDVYGDGTAVTVNA
Take B12: the values for the Binding [relative units] (relative units) in experiment [1] and in experiment [3] were 0.072 and 0.108, respectively. In experiment [4], this molecule returned an EC50 of 504 nM.

B13: VNAR clone H8 fused N-terminally to human IgG1 Fc (VNAR-hFc) (Fc fusion, not shown: a dimerising Fc or GST)
chain: ARVDQTPQTITKETGESLTINCVLRDSNCALPSTYWYRKKSGSTNEESISKGGRYVETVNSGSKSFSLRINDLVVEDSGTYRCKVGNYCIRLCYDMKFAVDVYGGGTAVTVNA
Consider B13, for which the Binding [relative units] (relative units) in experiment [1] was 0.059; in experiment [2], 0.048; in experiment [3], 0.049.

B14: VNAR clone H6 fused N-terminally to human IgG1 Fc (VNAR-hFc) (Fc fusion, not shown: a dimerising Fc or GST)
chain: ARVDQTPQTITKEEGESLTINCVLRTHSNALASTSWYRKKSGSTREETISKGGRYVETVNSGSKSFSLRINDLTVEDSGTYRCNVYAFLEIQPNIYHEFDVYGDGTAVTVNA
Regarding B14, the results for the Binding [relative units] (relative units) in experiment [1] and in experiment [3] were 0.06 and 0.186, respectively. The EC50 in experiment [4] came out at 86 nM.

B15: VNAR clone G12 fused N-terminally to human IgG1 Fc (VNAR-hFc) (Fc fusion, not shown: a dimerising Fc or GST)
chain: ARVDQTPQTITKETGESLTINCVLRDSNCALSSTYWYRKKSGSTNEALISKGGRYVETVNSGSKSFSLRINDLTVEDSGTYRCNVVQDLRDDCFFRDVYGGGTAVTVNA
Regarding B15, the results for the Binding [relative units] (relative units) in experiment [1], in experiment [2] and in experiment [3] were 0.054, 0.044 and 0.044, respectively.

B16: VNAR clone C6 fused N-terminally to human IgG1 Fc (VNAR-hFc) (Fc fusion, not shown: a dimerising Fc or GST)
chain: ARVDQTPQTITKETGESLTINCVLRDSNCALSSTYWYRKKSGSTNEALISKGGRYVETVNSGSKSFSLRINDLTVEDSGTYRCNVVYDLRDDCFFRDVYGGGTAVTVNA
For B16, the Binding [relative units] (relative units) is 0.052 in experiment [1], 0.041 in experiment [2] and 0.042 in experiment [3].

B17: VNAR clone H7A fused N-terminally to human IgG1 Fc (VNAR-hFc) (Fc fusion, not shown: a dimerising Fc or GST)
chain: PGVDQTEQTIKKEEGESVTIKCVMRVKYPALASTSRYRKKSGSREETISKGGRYVETVNYSSKSISVRINDMTVEDSGRYRCNVYEEYAVDCDALVYQDVYGDGTAVTVNA
In the case of B17, the results for the Binding [relative units] (relative units) in experiment [1], in experiment [2] and in experiment [3] were 0.054, 0.043 and 0.043, respectively.
